According to patent publication US20240124575A1:
Where two headings read alike, the source gives them in different places.

Key:
[1] = molecular target: human CD33-C2-his (human) (UniProt P20138); experiment: ELISA, antigen coated
[2] = molecular target: human CD33-V-his (human) (UniProt P20138); experiment: ELISA, antigen coated
[3] = molecular target: human CD33-His (extracellular domain Asp 18-His 259) (human) (UniProt P20138); experiment: ELISA, antigen coated
[4] = molecular target: murine CD33-His protein (murine) (UniProt Q63994); experiment: ELISA, antigen coated
[5] = molecular target: human CD33 on CHO-K1 cells (CHO-K1-human CD33) (human) (UniProt P20138); experiment: FACS, CHO-K1-human CD33 cells
[6] = molecular target: human CD33-His (extracellular domain Asp 18-His 259) (human) (UniProt P20138); experiment: ELISA, antigen coated; remark: listed apart in the source
[7] = molecular target: human CD33 on CHO-K1 cells (CHO-K1-human CD33) (human) (UniProt P20138); experiment: FACS, CHO-K1-human CD33 cells; remark: listed apart in the source
[8] = molecular target: human CD33 on U937 cells (endogenous) (human) (UniProt P20138); experiment: FACS, U937 cells
[9] = molecular target: human CD33-His (extracellular domain Asp 18-His 259) (human) (UniProt P20138); experiment: ELISA, antigen coated; remark: listed apart in the source
[10] = molecular target: human CD33 on U937 cells (endogenous) (human) (UniProt P20138); experiment: FACS, U937 cells; remark: listed apart in the source
[11] = molecular target: human CD33 on CHO-K1 cells (CHO-K1-human CD33) (human) (UniProt P20138); experiment: FACS, clone CHO-K1-human CD33 B8
[12] = molecular target: human CD33 on CHO-K1 cells (CHO-K1-human CD33) (human) (UniProt P20138); experiment: FACS, clone CHO-K1-human CD33 C8
[13] = molecular target: human CD33 on CHO-K1 cells (CHO-K1-human CD33) (human) (UniProt P20138); experiment: FACS, clone CHO-K1-human CD33 B11
[14] = molecular target: human CD33-his protein (human) (UniProt P20138); experiment: competition ELISA, coated human CD33-his, vs Biotin-C33B904 at EC80; antibody 31.25 nM
[15] = molecular target: human CD33-his protein (human) (UniProt P20138); experiment: competition ELISA, coated human CD33-his, vs Biotin-C33B904 at EC80; antibody 1.95 nM
[16] = molecular target: human CD33-his protein (human) (UniProt P20138); experiment: competition ELISA, coated human CD33-his, vs Biotin-C33B904 at EC80; antibody 3.91 nM
[17] = molecular target: human CD33-his protein (human) (UniProt P20138); experiment: competition ELISA, coated human CD33-his, vs Biotin-C33B904 at EC80; antibody 15.63 nM
[18] = molecular target: human CD33-his protein (human) (UniProt P20138); experiment: competition ELISA, coated human CD33-his, vs Biotin-C33B904 at EC80; antibody 500 nM
[19] = molecular target: human CD33-his protein (human) (UniProt P20138); experiment: as above; remark: listed apart in the source
[20] = molecular target: human CD33-his protein (human) (UniProt P20138); experiment: competition ELISA, coated human CD33-his, vs Biotin-C33B904 at EC80; antibody 125.00 nM
[21] = molecular target: human CD33-his protein (human) (UniProt P20138); experiment: competition ELISA, coated human CD33-his, vs Biotin-C33B904 at EC80; antibody 0.49 nM
[22] = molecular target: human CD33-his protein (human) (UniProt P20138); experiment: competition ELISA, coated human CD33-his, vs Biotin-C33B904 at EC80; antibody 0.98 nM
[23] = molecular target: human CD33-his protein (human) (UniProt P20138); experiment: competition ELISA, coated human CD33-his, vs Biotin-C33B904 at EC80; antibody 1.95 nM; remark: listed apart in the source
[24] = molecular target: human CD33-his protein (human) (UniProt P20138); experiment: competition ELISA, coated human CD33-his, vs Biotin-C33B904 at EC80; antibody 7.81 nM
[25] = molecular target: human CD33-his protein (human) (UniProt P20138); experiment: competition ELISA, coated human CD33-his, vs Biotin-C33B904 at EC80; antibody 0 nM (no competitor)
[26] = molecular target: human CD33-his protein (human) (UniProt P20138); experiment: competition ELISA, coated human CD33-his, vs Biotin-C33B904 at EC80; antibody 250.00 nM
[27] = molecular target: human CD33-his protein (human) (UniProt P20138); experiment: competition ELISA, coated human CD33-his, vs Biotin-C33B904 at EC80; antibody 0.98 nM; remark: listed apart in the source
[28] = molecular target: human CD33-his protein (human) (UniProt P20138); experiment: competition ELISA, coated human CD33-his, vs Biotin-C33B904 at EC80; antibody 62.50 nM
[29] = molecular target: human CD33-his protein (human) (UniProt P20138); experiment: competition ELISA, coated human CD33-his, vs Biotin-C33B904 at EC80; antibody 250.00 nM; remark: listed apart in the source
[30] = molecular target: human CD33-his protein (human) (UniProt P20138); experiment: competition ELISA, coated human CD33-his, vs Biotin-C33B904 at EC80; antibody 7.81 nM; remark: listed apart in the source
[31] = molecular target: human CD33-his protein (human) (UniProt P20138); experiment: competition ELISA, coated human CD33-his, vs Biotin-C33B904 at EC80; antibody 15.63 nM; remark: listed apart in the source
[32] = molecular target: human CD33-his protein (human) (UniProt P20138); experiment: competition ELISA, coated human CD33-his, vs Biotin-C33B904 at EC80; antibody 0 nM (no competitor); remark: listed apart in the source
[33] = molecular target: human CD33-his protein (human) (UniProt P20138); experiment: competition ELISA, coated human CD33-his, vs Biotin-C33B904 at EC80; antibody 0.49 nM; remark: listed apart in the source
[34] = molecular target: human CD33-his protein (human) (UniProt P20138); experiment: competition ELISA, coated human CD33-his, vs Biotin-C33B904 at EC80; antibody 31.25 nM; remark: listed apart in the source
[35] = molecular target: human CD33-his protein (human) (UniProt P20138); experiment: competition ELISA, coated human CD33-his, vs Biotin-C33B904 at EC80; antibody 125.00 nM; remark: listed apart in the source
[36] = molecular target: human CD33-his protein (human) (UniProt P20138); experiment: competition ELISA, coated human CD33-his, vs Biotin-C33B904 at EC80; antibody 62.50 nM; remark: listed apart in the source
[37] = molecular target: human CD33-his protein (human) (UniProt P20138); experiment: competition ELISA, coated human CD33-his, vs Biotin-C33B904 at EC80; antibody 3.91 nM; remark: listed apart in the source

Chain of murine CD33-His protein (murine) (Q63994 18-240 limits assumed): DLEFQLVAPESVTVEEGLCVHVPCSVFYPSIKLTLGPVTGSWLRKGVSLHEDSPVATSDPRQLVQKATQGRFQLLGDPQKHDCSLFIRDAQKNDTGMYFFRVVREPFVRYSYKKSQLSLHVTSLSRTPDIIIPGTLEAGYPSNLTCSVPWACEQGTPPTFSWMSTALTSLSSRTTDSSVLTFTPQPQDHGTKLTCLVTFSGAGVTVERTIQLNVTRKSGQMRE
Chain of human CD33-C2-his (human) (P20138 other isoform, or with tags, fused parts or gaps limits assumed): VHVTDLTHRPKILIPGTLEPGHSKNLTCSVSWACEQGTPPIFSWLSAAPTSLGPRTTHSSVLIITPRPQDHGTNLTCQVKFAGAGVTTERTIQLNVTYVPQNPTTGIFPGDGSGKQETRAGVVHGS
Chain of human CD33-V-his (human) (P20138 other isoform, or with tags, fused parts or gaps limits assumed): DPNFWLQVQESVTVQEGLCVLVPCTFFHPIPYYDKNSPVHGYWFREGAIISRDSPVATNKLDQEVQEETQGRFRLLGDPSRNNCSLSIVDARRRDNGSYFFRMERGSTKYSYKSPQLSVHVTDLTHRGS
Chain of human CD33 on U937 cells (endogenous) (human) (P20138 18-364): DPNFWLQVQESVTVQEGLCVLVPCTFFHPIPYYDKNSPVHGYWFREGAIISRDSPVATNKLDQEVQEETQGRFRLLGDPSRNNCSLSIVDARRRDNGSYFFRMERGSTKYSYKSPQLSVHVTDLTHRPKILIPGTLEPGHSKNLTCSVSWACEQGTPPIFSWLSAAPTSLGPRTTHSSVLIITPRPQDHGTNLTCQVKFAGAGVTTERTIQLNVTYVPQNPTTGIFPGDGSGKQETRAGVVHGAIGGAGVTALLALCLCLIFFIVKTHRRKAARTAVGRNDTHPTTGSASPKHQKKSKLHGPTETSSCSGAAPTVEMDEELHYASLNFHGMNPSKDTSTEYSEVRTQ
Chain of human CD33 on CHO-K1 cells (CHO-K1-human CD33) (human) (P20138 18-364): as above
Chain of human CD33-His (extracellular domain Asp 18-His 259) (human) (P20138 18-259 limits assumed): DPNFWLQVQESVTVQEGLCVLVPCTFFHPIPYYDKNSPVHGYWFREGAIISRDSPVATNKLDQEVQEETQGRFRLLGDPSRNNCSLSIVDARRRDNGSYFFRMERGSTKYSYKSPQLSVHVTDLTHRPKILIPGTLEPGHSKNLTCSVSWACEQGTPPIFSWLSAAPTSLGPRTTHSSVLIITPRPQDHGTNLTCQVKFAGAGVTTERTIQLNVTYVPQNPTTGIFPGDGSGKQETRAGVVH
Chain of human CD33-his protein (human) (P20138 18-259 limits assumed): as above

Substance: anti-hel-hIgG1 antibody against hen egg lysozyme
- OD450 at 0.0001 nM [1]: 0.26 OD450
- OD450 at 0.001 nM [1]: 0.25 OD450
- OD450 at 0.01 nM [1]: 0.24 OD450
- OD450 at 0.1 nM [1]: 0.27 OD450
- OD450 at 1 nM [1]: 0.23 OD450
- OD450 at 10 nM [1]: 0.24 OD450
- OD450 at 100 nM [1]: 0.3 OD450
- OD450 at 0.0001 nM [2]: 0.23 OD450
- OD450 at 0.001 nM [2]: 0.33 OD450
- OD450 at 0.01 nM [2]: 0.2 OD450
- OD450 at 0.1 nM [2]: 0.23 OD450
- OD450 at 1 nM [2]: 0.22 OD450
- OD450 at 10 nM [2]: 0.22 OD450
- OD450 at 100 nM [2]: 0.31 OD450
- OD450 at 0.0001 nM [3]: 0.06 OD450
- OD450 at 0.01 nM [3]: 0.05 OD450
- OD450 at 0.1 nM [3]: 0.06 OD450
- OD450 at 1 nM [3]: 0.06 OD450
- OD450 at 10 nM [3]: 0.08 OD450
- OD450 at 100 nM [3]: 0.1 OD450
- OD450 at 0.0001 nM [4]: 0.05 OD450
- OD450 at 0.001 nM [4]: 0.06 OD450
- OD450 at 0.01 nM [4]: 0.06 OD450
- OD450 at 0.1 nM [4]: 0.06 OD450
- OD450 at 1 nM [4]: 0.06 OD450
- OD450 at 10 nM [4]: 0.06 OD450
- OD450 at 100 nM [4]: 0.06 OD450
- Max MFI [5]: 140 MFI
- OD450 at 0.0001 nM [6]: 0.05 OD450
- OD450 at 0.001 nM [6]: 0.06 OD450
- OD450 at 0.01 nM [6]: 0.06 OD450
- OD450 at 0.1 nM [6]: 0.05 OD450
- OD450 at 1 nM [6]: 0.05 OD450
- OD450 at 10 nM [6]: 0.05 OD450
- OD450 at 100 nM [6]: 0.05 OD450
- Max MFI [7]: 389 MFI
- Max MFI [8]: 84 MFI
- OD450 at 0.0001 nM [9]: 0.04 OD450
- OD450 at 0.001 nM [9]: 0.04 OD450
- OD450 at 0.01 nM [9]: 0.04 OD450
- OD450 at 0.1 nM [9]: 0.03 OD450
- OD450 at 1 nM [9]: 0.03 OD450
- OD450 at 10 nM [9]: 0.04 OD450
- OD450 at 100 nM [9]: 0.06 OD450
- Max MFI [10]: 162 MFI

Substance: IgG subtype control (antibody)
- Mean fluorescence intensity of cells [11]: 30.9 MFI
- Mean fluorescence intensity of cells [12]: 30.9 MFI
- Mean fluorescence intensity of cells [13]: 30.9 MFI
- Mean fluorescence intensity of cells [10]: 114 MFI

Substance: hIgG1 (anti-hel-hIgG1 antibody against hen egg lysozyme)
- OD450 (Biotin-C33B904 signal) [14]: 2.21
- OD450 (Biotin-C33B904 signal) [15]: 2.3
- OD450 (Biotin-C33B904 signal) [16]: 2.3
- OD450 (Biotin-C33B904 signal) [17]: 2.3
- OD450 (Biotin-C33B904 signal) [18]: 2.46
- OD450 (Biotin-C33B904 signal) [19]: 2.34
- OD450 (Biotin-C33B904 signal) [20]: 2.17
- OD450 (Biotin-C33B904 signal) [21]: 2.22
- OD450 (Biotin-C33B904 signal) [22]: 2.08
- OD450 (Biotin-C33B904 signal) [23]: 2.21
- OD450 (Biotin-C33B904 signal) [24]: 2.33
- OD450 (Biotin-C33B904 signal) [25]: 2.26
- OD450 (Biotin-C33B904 signal) [26]: 2.35
- OD450 (Biotin-C33B904 signal) [27]: 2.27
- OD450 (Biotin-C33B904 signal) [28]: 2.35
- OD450 (Biotin-C33B904 signal) [29]: 2.16
- OD450 (Biotin-C33B904 signal) [30]: 2.17
- OD450 (Biotin-C33B904 signal) [31]: 2.35
- OD450 (Biotin-C33B904 signal) [32]: 2.24
- OD450 (Biotin-C33B904 signal) [33]: 2.13
- OD450 (Biotin-C33B904 signal) [34]: 2.38
- OD450 (Biotin-C33B904 signal) [35]: 2.34
- OD450 (Biotin-C33B904 signal) [36]: 2.17
- OD450 (Biotin-C33B904 signal) [37]: 2.19
